Our source for the koff values is article PMC8263772 (2021).

This assay deals with SARS-CoV-2 spike (S) protein receptor binding domain (RBD), wild type (SARS-CoV-2, UniProt P0DTC2). The assay can be described thus: SPR. In general terms: SPR reads the build-up and loss of mass on a sensor chip optically.

B1: dog angiotensin-converting enzyme 2 (dACE2) ectodomain, 6xHis (receptor)
chain: MQSTEDLVKTFLEKFNYEAEELSYQSSLASWNYNINITDENVQKMNNAGAKWSAFYEEQSKLAKTYPLEEIQDSTVKRQLRALQHSGSSVLSADKNQRLNTILNSMSTIYSTGKACNPSNPQECLLLEPGLDDIMENSKDYNERLWAWEGWRSEVGKQLRPLYEEYVALKNEMARANNYEDYGDYWRGDYEEEWENGYNYSRNQLIDDVEHTFTQIMPLYQHLHAYVRTKLMDTYPSYISPTGCLPAHLLGDMWGRFWTNLYPLTVPFGQKPNIDVTNAMVNQSWDARKIFKEAEKFFVSVGLPNMTQEFWENSMLTEPSDSRKVVCHPTAWDLGKGDFRIKMCTKVTMDDFLTAHHEMGHIQYDMAYAAQPFLLRNGANEGFHEAVGEIMSLSAATPNHLKNIGLLPPSFFEDSETEINFLLKQALTIVGTLPFTYMLEKWRWMVFKGEIPKDQWMKTWWEMKRNIVGVVEPVPHDETYCDPASLFHVANDYSFIRYYTRTIYQFQFQEALCQIAKHEGPLHKCDISNSSEAGQKLLEMLKLGKSKPWTYALEIVVGAKNMDVRPLLNYFEPLFTWLKEQNRNSFVGWNTDWSPYADQSIKVRISLKSALGEKAYEWNNNEMYLFRSSIAYAMRQYFSEVKNQTIPFVEDNVWVSDLKPRISFNFFVTSPGNVSDIIPRTEVEEAIRMYRSRINDVFRLDDNSLEFLGIQPTLGPPYEPPVT
The koff is the rate constant with which the complex falls apart. On to B1, for which the koff was determined as 0.0139 s⁻¹.
